Biological target: biotinylated mIL-12 (mIL-12a-AviTag-His6 and untagged mIL-12b) (mouse) (UniProt P43431)
Experiment: BLI

Sequence of mIL-12Rβ1_(D1-D2) (from mIL-12Rβ1_(D1-D2)-CASP3-AviTag-His6), analyte in BLI (domain or fragment) (Q60837 20-738): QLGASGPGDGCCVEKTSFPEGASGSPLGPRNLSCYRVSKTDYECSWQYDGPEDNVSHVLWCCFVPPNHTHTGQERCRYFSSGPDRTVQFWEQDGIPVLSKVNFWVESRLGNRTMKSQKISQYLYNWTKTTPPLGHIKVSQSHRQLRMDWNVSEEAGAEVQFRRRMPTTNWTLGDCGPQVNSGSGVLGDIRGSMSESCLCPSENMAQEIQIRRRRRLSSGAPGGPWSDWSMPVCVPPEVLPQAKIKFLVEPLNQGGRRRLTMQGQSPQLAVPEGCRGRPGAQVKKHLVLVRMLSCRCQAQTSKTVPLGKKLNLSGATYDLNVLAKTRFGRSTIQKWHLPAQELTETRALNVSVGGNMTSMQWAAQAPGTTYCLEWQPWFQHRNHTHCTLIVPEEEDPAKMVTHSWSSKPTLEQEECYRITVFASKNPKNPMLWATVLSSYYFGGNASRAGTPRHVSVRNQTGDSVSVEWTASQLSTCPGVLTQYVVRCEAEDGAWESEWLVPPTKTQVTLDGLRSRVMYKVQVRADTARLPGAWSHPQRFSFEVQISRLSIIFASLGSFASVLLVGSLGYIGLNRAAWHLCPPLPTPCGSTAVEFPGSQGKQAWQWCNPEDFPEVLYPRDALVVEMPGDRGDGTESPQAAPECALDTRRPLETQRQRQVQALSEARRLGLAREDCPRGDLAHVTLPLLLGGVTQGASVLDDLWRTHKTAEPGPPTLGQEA
Sequence of biotinylated mIL-12 (mIL-12a-AviTag-His6 and untagged mIL-12b) (mouse) (P43431 23-215, chain 1 of 2): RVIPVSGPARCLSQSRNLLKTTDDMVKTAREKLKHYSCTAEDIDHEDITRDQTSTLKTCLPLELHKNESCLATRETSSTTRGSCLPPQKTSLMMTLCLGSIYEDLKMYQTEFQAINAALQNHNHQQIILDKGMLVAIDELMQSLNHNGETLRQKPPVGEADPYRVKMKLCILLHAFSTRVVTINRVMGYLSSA
Sequence of biotinylated mIL-12 (mIL-12a-AviTag-His6 and untagged mIL-12b) (mouse) (P43432 23-335, chain 2 of 2, further chain): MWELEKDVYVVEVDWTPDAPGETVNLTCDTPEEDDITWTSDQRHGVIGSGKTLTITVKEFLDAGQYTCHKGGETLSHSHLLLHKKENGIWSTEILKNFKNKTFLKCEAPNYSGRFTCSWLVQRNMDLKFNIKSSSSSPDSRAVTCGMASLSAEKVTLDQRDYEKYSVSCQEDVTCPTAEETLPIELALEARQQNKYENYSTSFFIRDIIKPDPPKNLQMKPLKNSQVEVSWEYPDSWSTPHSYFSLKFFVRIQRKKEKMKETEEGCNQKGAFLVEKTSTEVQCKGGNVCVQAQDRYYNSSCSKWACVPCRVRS

fold higher affinity than the human counterparts (hIL-12 for hIL-12Rβ1): 10 fold
Substance: mIL-12Rβ1_(D1-D2) (from mIL-12Rβ1_(D1-D2)-CASP3-AviTag-His6), analyte in BLI (domain or fragment)

— publication doi:10.1101/2023.03.13.532366
